These results are taken from patent publication US20240247069A1 (published 2024).

Common to all, as to assay: Biacore
Experiment [1] addresses T1, Human FGFR3b.mmh (REGN3152) (UniProt P22607 23-806).
T1 chain: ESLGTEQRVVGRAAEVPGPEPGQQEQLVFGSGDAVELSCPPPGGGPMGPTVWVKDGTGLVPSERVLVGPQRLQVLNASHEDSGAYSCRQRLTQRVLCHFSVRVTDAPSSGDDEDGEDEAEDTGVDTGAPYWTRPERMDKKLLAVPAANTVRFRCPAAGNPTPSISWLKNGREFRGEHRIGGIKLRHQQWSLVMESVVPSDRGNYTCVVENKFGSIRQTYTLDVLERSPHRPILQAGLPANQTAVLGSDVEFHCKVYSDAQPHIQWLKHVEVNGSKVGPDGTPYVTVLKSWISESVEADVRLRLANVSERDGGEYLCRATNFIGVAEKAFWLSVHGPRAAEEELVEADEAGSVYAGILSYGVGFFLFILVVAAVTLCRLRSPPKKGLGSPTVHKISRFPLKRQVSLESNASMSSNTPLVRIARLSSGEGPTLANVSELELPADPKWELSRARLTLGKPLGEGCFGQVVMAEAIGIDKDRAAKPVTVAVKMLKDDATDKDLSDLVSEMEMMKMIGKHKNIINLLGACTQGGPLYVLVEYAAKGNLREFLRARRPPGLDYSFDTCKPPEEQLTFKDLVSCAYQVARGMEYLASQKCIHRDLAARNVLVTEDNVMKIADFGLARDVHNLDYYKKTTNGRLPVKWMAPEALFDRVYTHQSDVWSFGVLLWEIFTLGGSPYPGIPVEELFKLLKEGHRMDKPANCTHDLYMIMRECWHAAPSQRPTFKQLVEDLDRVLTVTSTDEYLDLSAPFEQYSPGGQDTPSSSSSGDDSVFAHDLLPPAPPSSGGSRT

The target in experiment [2] is T2, Mouse FGFR3b.mmh (REGN3215) (UniProt Q61851 21-801).
T2 chain: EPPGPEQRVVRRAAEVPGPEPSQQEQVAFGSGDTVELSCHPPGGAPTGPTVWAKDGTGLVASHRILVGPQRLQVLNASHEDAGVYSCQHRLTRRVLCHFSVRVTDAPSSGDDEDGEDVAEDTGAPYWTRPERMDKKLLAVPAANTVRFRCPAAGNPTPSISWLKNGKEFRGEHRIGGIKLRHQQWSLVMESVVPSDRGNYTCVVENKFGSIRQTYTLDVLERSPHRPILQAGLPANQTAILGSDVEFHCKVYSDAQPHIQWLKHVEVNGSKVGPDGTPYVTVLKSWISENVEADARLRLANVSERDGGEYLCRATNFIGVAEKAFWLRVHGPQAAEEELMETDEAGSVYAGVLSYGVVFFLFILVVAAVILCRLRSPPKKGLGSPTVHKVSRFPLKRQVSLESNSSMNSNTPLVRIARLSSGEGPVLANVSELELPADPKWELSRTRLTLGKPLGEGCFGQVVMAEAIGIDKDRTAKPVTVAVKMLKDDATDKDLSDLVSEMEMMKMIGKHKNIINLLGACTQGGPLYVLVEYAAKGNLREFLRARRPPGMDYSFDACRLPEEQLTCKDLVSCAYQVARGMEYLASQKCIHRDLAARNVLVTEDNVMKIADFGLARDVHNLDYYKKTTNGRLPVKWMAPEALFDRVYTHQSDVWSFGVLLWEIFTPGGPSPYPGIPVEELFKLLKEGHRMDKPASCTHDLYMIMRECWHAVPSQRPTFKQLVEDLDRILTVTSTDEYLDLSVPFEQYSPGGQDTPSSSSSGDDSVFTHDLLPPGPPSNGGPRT

A further experiment has as its target T3, Mouse FGFR3b (UniProt Q61851 21-801).
T3 chain: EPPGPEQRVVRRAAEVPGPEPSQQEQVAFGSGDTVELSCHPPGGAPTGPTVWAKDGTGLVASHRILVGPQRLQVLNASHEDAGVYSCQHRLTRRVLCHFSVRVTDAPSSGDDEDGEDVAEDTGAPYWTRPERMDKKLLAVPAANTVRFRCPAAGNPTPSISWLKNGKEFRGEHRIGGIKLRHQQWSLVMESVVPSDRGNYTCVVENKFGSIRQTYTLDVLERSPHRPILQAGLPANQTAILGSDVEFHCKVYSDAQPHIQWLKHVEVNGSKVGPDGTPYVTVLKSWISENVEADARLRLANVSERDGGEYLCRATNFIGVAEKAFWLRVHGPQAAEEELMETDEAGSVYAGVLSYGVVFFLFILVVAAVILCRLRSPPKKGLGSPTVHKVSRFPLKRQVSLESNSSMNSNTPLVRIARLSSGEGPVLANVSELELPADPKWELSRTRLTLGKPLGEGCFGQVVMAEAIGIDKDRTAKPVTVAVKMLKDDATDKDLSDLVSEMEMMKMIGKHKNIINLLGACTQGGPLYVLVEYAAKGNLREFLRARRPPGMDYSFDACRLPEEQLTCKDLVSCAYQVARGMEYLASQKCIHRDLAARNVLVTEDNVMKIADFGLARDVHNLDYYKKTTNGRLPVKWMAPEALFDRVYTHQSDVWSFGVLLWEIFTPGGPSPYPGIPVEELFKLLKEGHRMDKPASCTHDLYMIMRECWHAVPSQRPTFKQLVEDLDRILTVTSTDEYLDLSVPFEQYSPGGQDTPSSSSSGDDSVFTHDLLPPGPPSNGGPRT

The target in another experiment is T4, Human FGFR3b (UniProt P22607 23-806).
T4 chain: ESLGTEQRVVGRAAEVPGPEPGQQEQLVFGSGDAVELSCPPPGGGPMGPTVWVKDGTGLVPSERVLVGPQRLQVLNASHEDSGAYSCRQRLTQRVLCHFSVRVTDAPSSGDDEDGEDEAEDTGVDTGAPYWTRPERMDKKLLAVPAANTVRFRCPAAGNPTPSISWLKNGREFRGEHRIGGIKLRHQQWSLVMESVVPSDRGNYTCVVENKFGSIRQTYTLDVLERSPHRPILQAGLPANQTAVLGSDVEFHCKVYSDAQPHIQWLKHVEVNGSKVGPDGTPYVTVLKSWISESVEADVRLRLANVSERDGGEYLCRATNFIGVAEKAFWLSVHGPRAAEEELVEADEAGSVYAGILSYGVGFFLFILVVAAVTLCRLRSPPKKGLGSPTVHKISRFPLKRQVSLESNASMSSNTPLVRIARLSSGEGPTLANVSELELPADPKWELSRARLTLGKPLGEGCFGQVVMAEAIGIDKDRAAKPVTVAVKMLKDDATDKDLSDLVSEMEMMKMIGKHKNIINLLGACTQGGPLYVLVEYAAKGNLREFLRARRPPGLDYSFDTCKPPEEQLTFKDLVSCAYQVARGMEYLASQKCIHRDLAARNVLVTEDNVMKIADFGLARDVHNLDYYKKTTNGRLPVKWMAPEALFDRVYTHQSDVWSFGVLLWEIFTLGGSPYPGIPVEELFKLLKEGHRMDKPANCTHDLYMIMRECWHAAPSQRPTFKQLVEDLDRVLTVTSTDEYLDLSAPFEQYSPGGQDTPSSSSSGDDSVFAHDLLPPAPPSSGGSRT

B1: mAb063 (antibody, V domains shown)
VH: QVQLQESGPGLVKPSETLSLTCTVSGDSINSYFWSWIRQLPGKELEWIGHIYSSGSTRYNPSLQSRVTISIDTSKNQFSLKLSSVTAADTAVYYCARGASAVDYWGQGTLVTVSS
VL: EIVLTQSPGTLSLSPGERATLSCRTSQSISSGYLAWYQQKPGQAPRLLIYGASRRATGIPDRFSGSGSGTDFTLTISRLEPEDFVVYYCQQYGSSPYTFGQGTKLEIKR
B1: the dissociation constant Kd amounted to 2.59 nM in experiment [1], 1.4 nM in experiment [2], 1.4 nM with Mouse FGFR3b and 2.59 nM with Human FGFR3b.

By Kd is commonly meant a measure of binding affinity in units of concentration. A lower Kd goes with a tighter complex.
